B1: Ras GTPase-activating protein 1, residues 281 to 341; numbered along this chain, P20936 (parent)
chain: RRRVRAILPYTKVPDTDEISFLKGDMFIVHNELEDGWMWVTNLRTDEQGLIVEDLVEEVGR

± gives the uncertainty stated by the source.

The data set covers variants of B1. The data set can be described thus: abundance fitness (aPCA) (normalised: wild type 0, dead -1); higher = more abundant; growth selection in yeast, the domain comes from the species named. The settings on record: Homo sapiens.
Regarding RRRVRAILPYTHVPDTDEISFLKGDMFIVHNELEDGWMWVTNLRTDEQGLIVEDLVEEVGR [K12H], the abundance fitness was -0.184 ± 0.033. Turning to RRRVRAILPYTFVPDTDEISFLKGDMFIVHNELEDGWMWVTNLRTDEQGLIVEDLVEEVGR [K12F], the abundance fitness is -0.985 ± 0.052. Next, RRRVRAILPYTQVPDTDEISFLKGDMFIVHNELEDGWMWVTNLRTDEQGLIVEDLVEEVGR [K12Q]: -0.202 ± 0.096; RRRVRAILPYTEVPDTDEISFLKGDMFIVHNELEDGWMWVTNLRTDEQGLIVEDLVEEVGR [K12E]: -0.218 ± 0.11. As for RRRVRAILPYTRVPDTDEISFLKGDMFIVHNELEDGWMWVTNLRTDEQGLIVEDLVEEVGR [K12R], the abundance fitness is -0.052 ± 0.033. With RRRVRAILPYTMVPDTDEISFLKGDMFIVHNELEDGWMWVTNLRTDEQGLIVEDLVEEVGR [K12M], the abundance fitness is -0.188 ± 0.053. RRRVRAILPYTGVPDTDEISFLKGDMFIVHNELEDGWMWVTNLRTDEQGLIVEDLVEEVGR [K12G]: the abundance fitness was found to be 0.023 ± 0.032. In the case of RRRVRAILPYTIVPDTDEISFLKGDMFIVHNELEDGWMWVTNLRTDEQGLIVEDLVEEVGR [K12I], the abundance fitness was -1.01 ± 0.062. On to RRRVRAILPYTTVPDTDEISFLKGDMFIVHNELEDGWMWVTNLRTDEQGLIVEDLVEEVGR [K12T], for which the abundance fitness is -0.7 ± 0.048. Regarding RRRVRAILPYTDVPDTDEISFLKGDMFIVHNELEDGWMWVTNLRTDEQGLIVEDLVEEVGR [K12D], the abundance fitness was -0.806 ± 0.056. Turning to RRRVRAILPYTSVPDTDEISFLKGDMFIVHNELEDGWMWVTNLRTDEQGLIVEDLVEEVGR [K12S], the abundance fitness is -0.077 ± 0.027. As for RRRVRAILPFTKVPDTDEISFLKGDMFIVHNELEDGWMWVTNLRTDEQGLIVEDLVEEVGR [Y10F], the figure is -0.577 ± 0.042.

For the variant RRRVRAILPATKVPDTDEISFLKGDMFIVHNELEDGWMWVTNLRTDEQGLIVEDLVEEVGR [Y10A], the abundance fitness was -0.588 ± 0.088. Next, RRRVRAILPKTKVPDTDEISFLKGDMFIVHNELEDGWMWVTNLRTDEQGLIVEDLVEEVGR [Y10K]: -0.485 ± 0.15; RRRVRAILPVTKVPDTDEISFLKGDMFIVHNELEDGWMWVTNLRTDEQGLIVEDLVEEVGR [Y10V]: -0.728 ± 0.06; RRRVRAILPMTKVPDTDEISFLKGDMFIVHNELEDGWMWVTNLRTDEQGLIVEDLVEEVGR [Y10M]: -0.577 ± 0.096. As to RRRVRAILPDTKVPDTDEISFLKGDMFIVHNELEDGWMWVTNLRTDEQGLIVEDLVEEVGR [Y10D], the abundance fitness was -1.04 ± 0.13.

As to RRRVRAILPETKVPDTDEISFLKGDMFIVHNELEDGWMWVTNLRTDEQGLIVEDLVEEVGR [Y10E], the abundance fitness was -0.838 ± 0.46. RRRVRAILPRTKVPDTDEISFLKGDMFIVHNELEDGWMWVTNLRTDEQGLIVEDLVEEVGR [Y10R]: the abundance fitness was -0.27 ± 0.045. With RRRVRAILPSTKVPDTDEISFLKGDMFIVHNELEDGWMWVTNLRTDEQGLIVEDLVEEVGR [Y10S], the abundance fitness was -0.623 ± 0.042. Take RRRVRAILPNTKVPDTDEISFLKGDMFIVHNELEDGWMWVTNLRTDEQGLIVEDLVEEVGR [Y10N]: the abundance fitness is -0.35 ± 0.048. With RRRVRAILPHTKVPDTDEISFLKGDMFIVHNELEDGWMWVTNLRTDEQGLIVEDLVEEVGR [Y10H], the abundance fitness amounted to 0.084 ± 0.045.

Consider RRRVRAILPCTKVPDTDEISFLKGDMFIVHNELEDGWMWVTNLRTDEQGLIVEDLVEEVGR [Y10C], for which the abundance fitness was -0.539 ± 0.05.

For RRRVRAILPTTKVPDTDEISFLKGDMFIVHNELEDGWMWVTNLRTDEQGLIVEDLVEEVGR [Y10T], the abundance fitness is -0.999 ± 0.098. In the case of RRRVRAILPGTKVPDTDEISFLKGDMFIVHNELEDGWMWVTNLRTDEQGLIVEDLVEEVGR [Y10G], the abundance fitness was -0.84 ± 0.091. In the case of RRRVRAILPQTKVPDTDEISFLKGDMFIVHNELEDGWMWVTNLRTDEQGLIVEDLVEEVGR [Y10Q], the abundance fitness is -0.422 ± 0.089. For RRRVRAILTYTKVPDTDEISFLKGDMFIVHNELEDGWMWVTNLRTDEQGLIVEDLVEEVGR [P9T], the abundance fitness is -0.076 ± 0.038. Turning to RRRVRAILYYTKVPDTDEISFLKGDMFIVHNELEDGWMWVTNLRTDEQGLIVEDLVEEVGR [P9Y], the abundance fitness is -0.796 ± 0.046.

For RRRVRAILRYTKVPDTDEISFLKGDMFIVHNELEDGWMWVTNLRTDEQGLIVEDLVEEVGR [P9R], the abundance fitness was -0.311 ± 0.035. On to RRRVRAILGYTKVPDTDEISFLKGDMFIVHNELEDGWMWVTNLRTDEQGLIVEDLVEEVGR [P9G], for which the abundance fitness is -0.059 ± 0.03. In the case of RRRVRAILSYTKVPDTDEISFLKGDMFIVHNELEDGWMWVTNLRTDEQGLIVEDLVEEVGR [P9S], the abundance fitness was -0.044 ± 0.026. For RRRVRAILMYTKVPDTDEISFLKGDMFIVHNELEDGWMWVTNLRTDEQGLIVEDLVEEVGR [P9M], the abundance fitness was -0.308 ± 0.082.

In the case of RRRVRAILLYTKVPDTDEISFLKGDMFIVHNELEDGWMWVTNLRTDEQGLIVEDLVEEVGR [P9L], the abundance fitness was -0.772 ± 0.048.

Regarding RRRVRAILHYTKVPDTDEISFLKGDMFIVHNELEDGWMWVTNLRTDEQGLIVEDLVEEVGR [P9H], the abundance fitness was -0.157 ± 0.036. Next, RRRVRAILAYTKVPDTDEISFLKGDMFIVHNELEDGWMWVTNLRTDEQGLIVEDLVEEVGR [P9A]: -0.026 ± 0.039; RRRVRAILQYTKVPDTDEISFLKGDMFIVHNELEDGWMWVTNLRTDEQGLIVEDLVEEVGR [P9Q]: -0.091 ± 0.12; RRRVRAILEYTKVPDTDEISFLKGDMFIVHNELEDGWMWVTNLRTDEQGLIVEDLVEEVGR [P9E]: -0.103 ± 0.069.

RRRVRAILFYTKVPDTDEISFLKGDMFIVHNELEDGWMWVTNLRTDEQGLIVEDLVEEVGR [P9F]: the abundance fitness is -0.73 ± 0.039. Regarding RRRVRAILNYTKVPDTDEISFLKGDMFIVHNELEDGWMWVTNLRTDEQGLIVEDLVEEVGR [P9N], the abundance fitness was -0.101 ± 0.031. For RRRVRAILKYTKVPDTDEISFLKGDMFIVHNELEDGWMWVTNLRTDEQGLIVEDLVEEVGR [P9K], the abundance fitness was -0.232 ± 0.07. Next, RRRVRAILIYTKVPDTDEISFLKGDMFIVHNELEDGWMWVTNLRTDEQGLIVEDLVEEVGR [P9I]: -0.876 ± 0.055; RRRVRAILVYTKVPDTDEISFLKGDMFIVHNELEDGWMWVTNLRTDEQGLIVEDLVEEVGR [P9V]: -0.855 ± 0.054.

For RRRVRAILWYTKVPDTDEISFLKGDMFIVHNELEDGWMWVTNLRTDEQGLIVEDLVEEVGR [P9W], the abundance fitness was -0.805 ± 0.095. Next, RRRVRAILDYTKVPDTDEISFLKGDMFIVHNELEDGWMWVTNLRTDEQGLIVEDLVEEVGR [P9D]: 0.049 ± 0.033.

These data come from the Human Domainome abundance scans (Beltran et al. 2025).
